Assay results reported in patent US20240294593A1.

Assays:
human PD-1-His (human) [1] = molecular target: human PD-1-His (human) (UniProt Q15116); assay: Octet tandem epitope binning: PD-1-His on HIS1K biosensor, first dip chmAb B (row), second dip 1C11-based mAb; normalized to HBS-EP first dip
human PD-1-His (human) [2] = molecular target: human PD-1-His (human) (UniProt Q15116); assay: Octet tandem epitope binning: PD-1-His on HIS1K biosensor, first dip XENP21461 (row), second dip 1C11-based mAb; normalized to HBS-EP first dip
human PD-1-His (human) [3] = molecular target: human PD-1-His (human) (UniProt Q15116); assay: Octet tandem epitope binning: PD-1-His on HIS1K biosensor, first dip XENP16432 (row), second dip 1C11-based mAb; normalized to HBS-EP first dip
human PD-1-His (human) [4] = molecular target: human PD-1-His (human) (UniProt Q15116); assay: Octet tandem epitope binning: PD-1-His on HIS1K biosensor, first dip HBS-EP buffer (row; the reference of the normalization), second dip 1C11-based mAb
human PD-1-His (human) [5] = molecular target: human PD-1-His (human) (UniProt Q15116); assay: Octet tandem epitope binning: PD-1-His on HIS1K biosensor, first dip chmAb A (row), second dip 1C11-based mAb; normalized to HBS-EP first dip
human PD-1-His (human) [6] = molecular target: human PD-1-His (human) (UniProt Q15116); assay: Octet tandem epitope binning: PD-1-His on HIS1K biosensor, first dip PDL1-Fc (row), second dip 1C11-based mAb; normalized to HBS-EP first dip
human PD-1-His (human) [7] = molecular target: human PD-1-His (human) (UniProt Q15116); assay: Octet tandem epitope binning: PD-1-His on HIS1K biosensor, first dip 1C11-based mAb (row), second dip 1C11-based mAb; normalized to HBS-EP first dip
human PD-1-His (human) [8] = molecular target: human PD-1-His (human) (UniProt Q15116); assay: Octet
human PD-1-His (human) [9] = molecular target: human PD-1-His (human) (UniProt Q15116); assay: Octet; in the context of PD-1-targeted IL-15/Rα-Fc fusion; reference mAb C H1L1

human PD-1-His (human), sequence (Q15116 25-167 limits assumed): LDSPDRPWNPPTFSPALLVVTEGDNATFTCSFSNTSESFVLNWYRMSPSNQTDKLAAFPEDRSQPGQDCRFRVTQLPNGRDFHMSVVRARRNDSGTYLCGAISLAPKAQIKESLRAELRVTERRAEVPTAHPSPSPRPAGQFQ

Row | Binder | normalized BLI-response (human PD-1-His (human) [1]) | normalized BLI-response (human PD-1-His (human) [2]) | normalized BLI-response (human PD-1-His (human) [3]) | normalized BLI-response (human PD-1-His (human) [4]) | normalized BLI-response (human PD-1-His (human) [5]) | normalized BLI-response (human PD-1-His (human) [6]) | normalized BLI-response (human PD-1-His (human) [7]) | Kd (human PD-1-His (human) [8]) [nM] | koff (human PD-1-His (human) [8]) [s⁻¹] | kon (human PD-1-His (human) [8]) [M⁻¹ s⁻¹] | fold improvement in KD over wild-type (human PD-1-His (human) [9]) [fold]
1 | 1C11-based mAb (antibody, from another filing, V domains shown) VH: QIQLVQSGPELKKPGETVKISCRASGYTFTHYGMNWVKQAPGKGLKWMGWINTYTGEPTYADDFKGRFAFSLETSASTAYLQINNLKNEDTATYFCARDYYGSSPYWGQGTTLTVSS VL: DVLMTQTPLSLPVSLGDQASISCRSSQSIVHSNGNTYLEWYLQKPGQSPKLLIYKVSNRFSGVPDRFSGSGSGTDFTLKISRVEAEDLGVYYCFQGSHVPNTFGGGTKLEIKR | 0.253 | 0.405 | 0.29 | 1 | 0.966 | 0.621 | 0.0987 | – | – | – | –
2 | mAb C H1.19_L1.1 (in the context of PD-1-targeted IL-15/Rα-Fc fusion) (Fc fusion, part only; not given: IL-15/Rα-Fc chain, constant regions, not shown: another chain or arm of the molecule; a dimerising Fc or GST; small tags and cut ends) VH: EVQLVESGGGLVQPGGSLRLSCAASGFTFSSLGMHWVRQAPGKGLEWVSYISSGSSIIYYADSVKGRFTISRDNAKNSLYLQMNSLRAEDTAVYYCARGGRLVWSPDYWGQGTLVTVSS VL: DIVMTQSPDSLAVSLGERATINCKSSQSLLHSGNQKNYLTWYQQKPGQPPKLLIYWASTRESGVPDRFTGSGSGTDFTLTISSLQAEDVAVYYCQNDYSYPFTFGSGTKLEIK | – | – | – | – | – | – | – | 2.29 | 0.00017 | 74400 | –

Continued, values first:

Row | normalized BLI-response (human PD-1-His (human) [1]) | normalized BLI-response (human PD-1-His (human) [2]) | normalized BLI-response (human PD-1-His (human) [3]) | normalized BLI-response (human PD-1-His (human) [4]) | normalized BLI-response (human PD-1-His (human) [5]) | normalized BLI-response (human PD-1-His (human) [6]) | normalized BLI-response (human PD-1-His (human) [7]) | Kd (human PD-1-His (human) [8]) [nM] | koff (human PD-1-His (human) [8]) [s⁻¹] | kon (human PD-1-His (human) [8]) [M⁻¹ s⁻¹] | fold improvement in KD over wild-type (human PD-1-His (human) [9]) [fold] | Binder
3 | – | – | – | – | – | – | – | 0.543 | 7.88e-05 | 145000 | 100 | mAb C H1.132_L1.140 (in the context of PD-1-targeted IL-15/Rα-Fc fusion) (Fc fusion, part only; not given: IL-15/Rα-Fc chain, constant regions, not shown: another chain or arm of the molecule; a dimerising Fc or GST) VH: EVQLVESGGGLVQPGGSLRLSCAASGFTFSSFGMHWVRQAPGKGLEWVSYISSGSSIIYYADSVKGRFTISRDNAKNSLYLQMNSLRAEDTAVYYCARGGWLVWSPDYWGQGTLVTVSS VL: DIVMTQSPDSLAVSLGERATINCKSSQSLLHSGNQYNYLTWYQQKPGQPPKLLIYWASTRESGVPDRFTGSGSGTDFTLTISSLQAEDVAVYYCQNDYTYPFTFGSGTKLEIK
4 | – | – | – | – | – | – | – | 0.624 | 7.88e-05 | 126000 | 100 | mAb C H1.175_L1.140 (in the context of PD-1-targeted IL-15/Rα-Fc fusion) (Fc fusion, part only; not given: IL-15/Rα-Fc chain, constant regions, not shown: another chain or arm of the molecule; a dimerising Fc or GST) VH: EVQLVESGGGLVQPGGSLRLSCAASGFTFSSLGMHWVRQAPGKGLEWVSYISGGSSIIYYADSVKGRFTISRDNAKNSLYLQMNSLRAEDTAVYYCARGGWLVWSPDYWGQGTLVTVSS VL: DIVMTQSPDSLAVSLGERATINCKSSQSLLHSGNQYNYLTWYQQKPGQPPKLLIYWASTRESGVPDRFTGSGSGTDFTLTISSLQAEDVAVYYCQNDYTYPFTFGSGTKLEIK
5 | – | – | – | – | – | – | – | 1.62 | 0.000122 | 74800 | 36 | mAb C H1_L1.140 (in the context of PD-1-targeted IL-15/Rα-Fc fusion) (Fc fusion, part only; not given: IL-15/Rα-Fc chain, constant regions, not shown: another chain or arm of the molecule; a dimerising Fc or GST; small tags and cut ends) VH: EVQLVESGGGLVQPGGSLRLSCAASGFTFSSFGMHWVRQAPGKGLEWVSYISSGSSIIYYADSVKGRFTISRDNAKNSLYLQMNSLRAEDTAVYYCARGGRLVWSPDYWGQGTLVTVSS VL: DIVMTQSPDSLAVSLGERATINCKSSQSLLHSGNQYNYLTWYQQKPGQPPKLLIYWASTRESGVPDRFTGSGSGTDFTLTISSLQAEDVAVYYCQNDYTYPFTFGSGTKLEIK
